# PMC6628311, “An Emerin LEM-Domain Mutation Impairs Cell Response to Mechanical Stress” (Cells, 2019)
# Experiments:
# [1] = target: human barrier-to-autointegration factor (BAF) with all cysteines mutated into alanine (human) (UniProt O75531); assay: crystal structure; ternary complex EmN T43I/BAF/lamin A/C Ig-fold at 5 mg/mL, a week at 4 °C (proteolysis to the LEM-domain); hanging drop at 4 °C, 18% PEG 3350, 100 mM Tris Bis pH 5.5, 0.1 M NH4SO4; molecular replacement; 2.3 Å
# [2] = target: the molecule itself; assay: thioflavin T fluorescence (self-assembly kinetics); protein at 300 uM heated at 37 °C in 20 mM Tris HCl pH 8, 30 mM NaCl, 5 mM DTT; aliquots at 20 uM protein with 2.5 uM ThT read at 20 °C over 24 h
molecule,measurement,setting,value
human barrier-to-autointegration factor (BAF) with all cysteines mutated into alanine (from UniProt O75531 1-89) (natural protein),stoichiometry N,[1],2
"human emerin fragment EmN (region 1-187), wild-type (domain or fragment, UniProt P50402 1-187, looked up, emerin, human, fragment EmN, residues 1-187 of the 254-residue protein (LEM-domain aa 1-45 and part of the disordered region); pETM-13 vector; also called wild-type EmN; EmN wild-type; not shown: His8, N-terminal, cleaved) MDNYADLSDTELTTLLRRYNIPHGPVVGSTRRLYEKKIFEYETQRRRLSPPSSSAASSYSFSDLNSTRGDADMYDLPKKEDALLYQSKGYNDDYYEESYFTTRTYGEPESAGPSRAVRQSVTSFPDADAFHHQVHDDDLLSSSEEECKDRERPMYGRDSAYQSITHYRPVSASRSSLDLSYYPTSSS",binding result,[2],binds
"human emerin fragment EmN (region 1-187), mutant P22L (domain or fragment, UniProt P50402 1-187, looked up, emerin, human, fragment EmN, residues 1-187, with the patient mutation P22L (atrial cardiac defects); Made by site-directed mutagenesis from the EmN expression vector; also called EmN P22L; not shown: His8, N-terminal, cleaved) MDNYADLSDTELTTLLRRYNILHGPVVGSTRRLYEKKIFEYETQRRRLSPPSSSAASSYSFSDLNSTRGDADMYDLPKKEDALLYQSKGYNDDYYEESYFTTRTYGEPESAGPSRAVRQSVTSFPDADAFHHQVHDDDLLSSSEEECKDRERPMYGRDSAYQSITHYRPVSASRSSLDLSYYPTSSS",binding result,[2],binds
"human emerin fragment EmN (region 1-187), mutant ΔK37 (domain or fragment, UniProt P50402 1-187, looked up, emerin, human, fragment EmN, residues 1-187, with the patient deletion ΔK37 (atrial cardiac defects); Made by site-directed mutagenesis from the EmN expression vector; also called EmN ΔK37; emerin ΔK37; not shown: His8, N-terminal, cleaved) MDNYADLSDTELTTLLRRYNIPHGPVVGSTRRLYEKIFEYETQRRRLSPPSSSAASSYSFSDLNSTRGDADMYDLPKKEDALLYQSKGYNDDYYEESYFTTRTYGEPESAGPSRAVRQSVTSFPDADAFHHQVHDDDLLSSSEEECKDRERPMYGRDSAYQSITHYRPVSASRSSLDLSYYPTSSS",binding result,[2],binds
"human emerin fragment EmN (region 1-187), mutant T43I (domain or fragment, UniProt P50402 1-187, looked up, emerin, human, fragment EmN, residues 1-187, with the patient mutation T43I (atrial cardiac defects); Made by site-directed mutagenesis from the EmN expression vector; also called EmN T43I; not shown: His8, N-terminal, cleaved) MDNYADLSDTELTTLLRRYNIPHGPVVGSTRRLYEKKIFEYEIQRRRLSPPSSSAASSYSFSDLNSTRGDADMYDLPKKEDALLYQSKGYNDDYYEESYFTTRTYGEPESAGPSRAVRQSVTSFPDADAFHHQVHDDDLLSSSEEECKDRERPMYGRDSAYQSITHYRPVSASRSSLDLSYYPTSSS",binding result,[2],binds
